The text below walks through data of article PMC9427789.

In general, Kd refers to the constant that tells how readily two partners part at equilibrium.

The target in the assay is His-SUMO-FGF23 (N-terminal domain of human FGF23, wild type) (human) (UniProt Q9GZV9). In words: ELISA. A general note: In an ELISA, binding on a coated surface is turned into a signal by an enzyme label.
Sequence of His-SUMO-FGF23 (N-terminal domain of human FGF23, wild type) (human) (Q9GZV9 25-204): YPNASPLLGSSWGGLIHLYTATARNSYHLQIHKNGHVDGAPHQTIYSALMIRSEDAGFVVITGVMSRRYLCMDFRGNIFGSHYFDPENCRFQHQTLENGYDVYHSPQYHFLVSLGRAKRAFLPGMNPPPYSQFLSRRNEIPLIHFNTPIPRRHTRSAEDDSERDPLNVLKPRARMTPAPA

In the case of Burosumab VL:S52D, the Kd came out at 0.7 nM. Substance Burosumab VL:T69D returned a Kd of 0.86 nM. Burosumab VL:S67Y displayed a Kd of 0.73 nM.
